Experimental findings from patent publication US20170267766A1 (PIERRE FABRE MEDICAMENT, published 2017) are described below.

Assay [1] concerns the target T1, rmIGF-1R protein (R&D Systems, cat No 6630-GR/Fc) (murine, UniProt Q60751 31-936).
T1 construct: extracellular domain; bought; also called murine extracellular domain (ECD) of IGF-1R; not shown: Fc only implied by the catalogue number; not described
As to the kind of experiment: ELISA, coated rm IGF-1R, SNT 5 ug/ml. On the procedure: (§1) In addition three ELISA were performed (either before or after cloning) to study the binding of antibodies on the recombinant human (hIGF-1R) and murine (mIGF-1R) proteins, and on the recombinant human Insulin Receptor (hIR) protein. […] The plates were then blocked with PBS containing 0.5% gelatin (#22151, Serva Electrophoresis GmbH, Heidelberg, Germany) for 2 h at 37° C. Once the saturation buffer discarded by flicking plates, 100 μl of each supernatant dilution were added to the wells (either undiluted hybridoma supernatant either supernatant serial dilutions) and incubated for 1 h at 37° C. […] Then, ELISA plates were washed 3-times and the TMB (#UP664782, Uptima, Interchim, France) substrate is added. After a 10 min incubation time at room temperature, the reaction was stopped using 1 M sulfuric acid and the optical density at 450 nm is measured.

The target of assay [2] is T1, rmIGF-1R protein (R&D Systems, cat No …). The assay is described as follows: ELISA, coated rmIGF-1R (Table 8). On the procedure:
as §1
A general note: In an ELISA, binding on a coated surface is turned into a signal by an enzyme label.

Assay [3] has as its target T2, human IGF-1R (native, on cells) (human, UniProt P08069 31-1367).
T2 construct: also called hIGF-1R; native IGF-1R on MCF-7 cells
As to the kind of experiment: FACS, Tf hIGF1R+ cells, Ab 5 ug/ml. A general note: In flow cytometry, cells or beads pass a laser one at a time.

The target in assay [4] is T3, monkey IGF-1R (on COS-7 cells) (African green monkey).
T3 construct: whole, on cells
As to the kind of experiment: FACS, Cos-7 (monkey IGF1R+), Ab 5 ug/ml.

The target of assay [5] is T4, rhIR protein (R&D Systems, cat No 1544-IR/CF) (human, UniProt P06213-2 28-944).
T4 construct: extracellular domain; bought; also called rh Insulin R; recombinant human Insulin Receptor
As to the kind of experiment: ELISA, coated rhIR 1 ug/ml. On the procedure: as §1

For assay [6], the target named is T3, monkey IGF-1R (on COS-7 cells). As to the kind of experiment: cell-based or functional assay.
For assay [7], the target named is T5, human insulin receptor (on cells) (human, UniProt P06213 28-1382).
T5 construct: whole, on cells; on stably transfected cells or on IM9 cells; also called hIR; IR
The assay is described as follows: FACS on IM-9 cells (express hIR), 4°C. On the procedure: In order to verify the absence of binding of both murine and chimeric antibodies on hIR, a stable cell line expressing the human IR was used. The recognition of human cell surface hIR by both murine and chimeric Ab was performed by FACS analyses. Increasing concentrations of either the murine or the chimeric mAbs were incubated on the hIR′ transfected cell line for 20 minutes at 4° C. in FACS buffer (PBS, 0.1% BSA, 0.01% NaN₃). Cells were then washed 3 times and incubated with the appropriate secondary antibody coupled with Alexa 488 before being incubated for 20 additional minutes at 4° C. in the dark and then washed 3 times in FACS buffer. The binding of anti-IGF-1R antibodies was immediately performed on viable cells which were identified using propidium iodide (that stains dead cells). The binding EC₅₀ expressed in molarity (M) was calculated using a nonlinear regression analysis (GraphPad Prims 4.0). […] The c9G4 was introduced as an irrelevant antibody (isotype control).
For this FACS analysis, the protocol was the same as the one described previously and murine anti-IGF-1R antibodies were used in order to prevent the cross reactivity of the secondary anti-human Ab (IM9 cells express human Ig on their cell surface).

Assay [8] concerns the target T2, human IGF-1R (native, on cells). The assay is described as follows: cell-based or functional assay.
Assay [9] has the same target. As to the kind of experiment: cell-based or functional assay. The source holds these as a separate data set.
The target is the same in assay [10]. The assay is described as follows: cell-based or functional assay. The source holds these as a separate data set.
Assay [11] shares this target. The assay is described as follows: FACS, MCF7, 4°C, Ab 5 ug/ml. On the procedure: Additionally an internalization assay was performed in order to select only internalizing antibodies. For this assay, the MCF7 tumor cell line was cultured in RMPI 1640 without phenol red with 1% L-glutamine and 10% of […] for 3 days before experiment. Cells were then detached using trypsin and 100 μl of a cell suspension at 4·10⁵ cell/ml are plated in 96-multiwell plates in RPMI1640 without phenol red with 1% L-glutamine and 5% FBS. After a 2 min centrifugation at 2000 rpm, cells were resupended in 50 μl of hybridoma supernatant or control antibody solutions (positive and isotype controls at 1 μg/ml). After a 20 min incubation time at 4° C., cells were centrifuged 2 min at 2000 rpm and resuspended in either cold (4° C.) or warm (37° C.) complete culture medium. Cells were then incubated for 2 hours either at 37° C. or at 4° C. Then cells were washed three times with FACS buffer. An Alexa 488-labeled goat anti-mouse IgG antibody was incubated for 20 minutes and cells were washed three times before FACS analysis on propidium iodide negative cell population.

For assay [12] the target is unchanged. As to the kind of experiment: FACS on MCF-7 cells, 4°C; inset table, axis log [M]. On the procedure:
(§2) The binding properties of a series of anti-IGF-1R antibodies were evaluated by FACS analyses on the human MCF-7 breast adenocarcinoma cell line (ATCC#HTB-22) using increasing antibody concentrations. For that purpose, cells (1×10⁶ cells/ml) were incubated with anti-IGF-1R antibodies for 20 min. at 4° C. in FACS buffer (PBS, 0.1% BSA, 0.01% NaN₃). They were then washed 3 times and incubated with the appropriate secondary antibody coupled with Alexa 488 for 20 additional minutes at 4° C. in the dark before being washed 3 times in FACS buffer. The binding of anti-IGF-1R antibodies was immediately performed on viable cells which were identified using propidium iodide (that stains dead cells). The maximum of signal intensity obtained with each antibody was designed as Bₘₐₓ and expressed in mean of fluorescence intensity (MFI). The EC₅₀ of binding expressed in molarity (M) was calculated using a nonlinear regression analysis (GraphPad Prims 4.0).

The target of assay [13] is T6, soluble recombinant Cynomolgus monkey IGF-1R with C-terminal 10-His tag (produced in house) (Cynomolgus monkey).
T6 construct: extracellular domain; also called Cynomolgus IGF-1R ECD; Macaca IGF-1R
The assay is described as follows: SPR, common fit of the human and cynomolgus sensorgrams. On the procedure: (§3) The recognition experiments were run on a Biacore X100 device using a CM5 sensor chip activated by an anti-Tag His antibody (His capture kit GE Healthcare catalogue number 28-9950-56). More than 11000 RU of antibodies are chemically grafted on the carboxymethyldextan matrix using the amine kit chemistry. The experiments were carried out at 25° C. with a flow rate of 30 μl/min using the HBS-EP buffer (GE Healthcare) as the running and sample dilution buffer.
(§4) Solution of a second antibody is either injected in the same conditions on both flowcells or only on the second flowcell. […] At the end of the fifth injection the running buffer was passed in order to define the dissociation rate. The surface was then regenerated with an injection of a 10 mM Glycine, HCl pH 1.5 buffer during 30s.
(§5) The resulting sensorgrams were analysed using the Biaevaluation software with a 1:1 model. […] The quality of the fitting was assessed by a Chi2/Rmax ratio lower than 0.05 RU.

In assay [14] the target is T6, soluble recombinant Cynomolgus monkey …. As to the kind of experiment: SPR Biacore X100, single cycle kinetics, His-captured IGF-1R ~160 RU, 1:1 model. On the procedure:
as §3, §4, §5

Assay [15] has as its target T2, human IGF-1R (native, on cells). As to the kind of experiment: FACS titration, MCF-7. On the procedure:
as §2

Assay [16] addresses T3, monkey IGF-1R (on COS-7 cells). As to the kind of experiment: FACS on COS-7 cells, 4°C; inset table, axis log [M]. On the procedure: In order to evaluate the binding of anti-IGF-1R antibodies on monkey IGF-1R, the binding of both murine and chimeric anti-hIGF-1R antibodies was evaluated by FACS analyses on COS-7 cell line using increasing antibody concentrations. Cells (1×10⁶ cells/ml) were incubated with anti-IGF-1R antibodies for 20 minutes at 4° C. in FACS buffer (PBS, 0.1% BSA, 0.01% NaN₃). Then, cells were washed 3 times and incubated with the appropriate secondary antibody coupled with Alexa 488 before being incubated for 20 additional minutes at 4° C. in the dark and finally washed 3 times in FACS buffer. The binding of anti-IGF-1R antibodies was immediately evaluated on viable cells identified using propidium iodide (that stains dead cells). The binding EC₅₀ expressed in molarity (M) was calculated using a nonlinear regression analysis (GraphPad Prims 4.0).

In assay [17] the target is T2, human IGF-1R (native, on cells). As to the kind of experiment: FACS titration, hIGF-1R transfected cells. On the procedure: Briefly, increasing concentrations of chimeric mAbs were incubated with cells for 20 min at 4° C. in FACS buffer (PBS, 0.1% BSA, 0.01% NaN₃). Cells were then washed 3 times and incubated with the appropriate secondary antibody coupled with Alexa 488 before being incubated for 20 additional minutes at 4° C. in the dark and then washed 3 times in FACS buffer. The binding of anti-IGF-1R antibodies was immediately performed on viable cells which were identified using propidium iodide (that stains dead cells). The binding EC₅₀ expressed in molarity (M) was calculated using a nonlinear regression analysis (GraphPad Prims 4.0).

The target is the same in assay [18]. As to the kind of experiment: cell-based or functional assay. This is another data set of the same source.
For assay [19], the target named is T7, chimerical h/m IGF-1R construct C7 (human/mouse chimera, UniProt P08069 31-932, limits assumed).
T7 construct: 17 mouse specific residues
The assay is described as follows: SPR (Biacore X100), ratio of IGF-1R binding level to c208F2 capture level, supernatants diluted 10 times. Background: Surface plasmon resonance follows binding to a sensor surface in real time, without labels.

The target in assay [20] is T8, chimerical h/m IGF-1R construct C2 (human/mouse chimera, UniProt Q60751 31-937 (mouse entry)).
T8 construct: soluble form, supernatant
The description is as above.

A word on the EC50: it is the concentration giving half of the maximal effect. A word on the Kd: it is a measure of binding affinity in units of concentration.

T1 sequence (Q60751 31-936): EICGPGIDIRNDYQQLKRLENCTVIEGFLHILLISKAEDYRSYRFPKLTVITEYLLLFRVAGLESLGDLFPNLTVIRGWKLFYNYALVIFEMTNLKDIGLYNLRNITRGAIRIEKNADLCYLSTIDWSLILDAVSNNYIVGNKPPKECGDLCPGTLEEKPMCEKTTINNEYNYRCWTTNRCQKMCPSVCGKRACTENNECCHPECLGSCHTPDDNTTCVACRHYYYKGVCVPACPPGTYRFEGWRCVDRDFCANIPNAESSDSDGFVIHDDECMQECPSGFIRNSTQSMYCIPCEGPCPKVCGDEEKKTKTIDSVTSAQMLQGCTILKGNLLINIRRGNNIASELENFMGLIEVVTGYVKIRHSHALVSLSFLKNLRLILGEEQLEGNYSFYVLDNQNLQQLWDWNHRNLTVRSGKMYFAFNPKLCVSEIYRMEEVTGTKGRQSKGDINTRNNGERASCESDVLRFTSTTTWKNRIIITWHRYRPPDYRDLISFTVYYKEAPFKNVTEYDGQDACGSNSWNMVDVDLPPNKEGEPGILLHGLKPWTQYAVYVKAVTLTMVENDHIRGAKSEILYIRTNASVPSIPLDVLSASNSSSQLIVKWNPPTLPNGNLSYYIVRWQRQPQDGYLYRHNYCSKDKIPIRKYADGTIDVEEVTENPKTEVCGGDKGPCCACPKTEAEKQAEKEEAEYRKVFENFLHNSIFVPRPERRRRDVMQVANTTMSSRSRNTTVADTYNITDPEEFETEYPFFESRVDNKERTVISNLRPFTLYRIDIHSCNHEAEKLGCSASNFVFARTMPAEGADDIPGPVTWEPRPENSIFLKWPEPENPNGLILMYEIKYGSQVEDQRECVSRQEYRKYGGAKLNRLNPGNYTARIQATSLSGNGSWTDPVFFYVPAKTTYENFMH
T8 sequence (Q60751 other isoform, or with tags, fused parts or gaps mutant limits assumed): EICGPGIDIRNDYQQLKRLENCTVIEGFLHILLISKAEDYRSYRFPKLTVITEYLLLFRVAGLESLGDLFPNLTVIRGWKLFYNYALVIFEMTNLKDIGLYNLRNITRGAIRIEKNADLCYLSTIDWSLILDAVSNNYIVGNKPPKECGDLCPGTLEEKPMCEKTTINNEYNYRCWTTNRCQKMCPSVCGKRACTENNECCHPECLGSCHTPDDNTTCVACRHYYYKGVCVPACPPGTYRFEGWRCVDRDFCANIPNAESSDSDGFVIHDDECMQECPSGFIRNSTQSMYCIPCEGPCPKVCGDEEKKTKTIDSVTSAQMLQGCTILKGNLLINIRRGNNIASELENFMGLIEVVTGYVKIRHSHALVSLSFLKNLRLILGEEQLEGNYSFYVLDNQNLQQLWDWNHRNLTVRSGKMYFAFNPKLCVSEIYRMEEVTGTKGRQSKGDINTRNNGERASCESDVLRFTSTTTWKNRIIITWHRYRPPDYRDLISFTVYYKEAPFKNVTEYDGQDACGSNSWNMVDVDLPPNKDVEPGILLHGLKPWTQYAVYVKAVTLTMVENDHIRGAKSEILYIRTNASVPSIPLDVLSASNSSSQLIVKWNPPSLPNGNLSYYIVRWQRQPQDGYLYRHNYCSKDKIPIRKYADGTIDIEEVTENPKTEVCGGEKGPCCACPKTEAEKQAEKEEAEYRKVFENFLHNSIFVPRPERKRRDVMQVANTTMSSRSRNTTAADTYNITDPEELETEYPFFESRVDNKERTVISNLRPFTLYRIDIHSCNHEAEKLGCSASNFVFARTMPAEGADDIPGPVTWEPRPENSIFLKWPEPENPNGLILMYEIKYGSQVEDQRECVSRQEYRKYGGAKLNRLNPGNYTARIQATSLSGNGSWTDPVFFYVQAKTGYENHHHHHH

B1: m214F8 (antibody, V domains shown)
VH: QVQLQQSGSELVKPGASVKLSCKASGYTFTSYYIHWVKQRPGQGLEWIGWIWPGDGSTKYNERFKGKTTLTADKSSSTAYMFLSSLTSEDSAVYFCASPMITPNYAMDYWGQGASVTVSS
VL: DIQMTQTTSSLSASLGDRVTFSCRASQDISKYLNWYQQQPDGTIKLLIYYTSRLHSGVPSRFSGRGSGTDYSLTITNLEQEDIATYFCQQGSALPYTFGGGTKLEIK
notes: murine mAb, hybridoma CNCM I-4775, group G2
In the case of B1, the “D.O 450 nm” value in assay [1] stood at 0.102 D.O 450 nm. In assay [2], the binding result is given as “no binding”. This molecule also returned an MFI in assay [3] of 2140 MFI. In assay [4], this molecule gave an MFI of 132 MFI. Besides, the binding result in [5] is on record as “no binding”. Moreover, in assay [6], the “% internalisation” value turned out to be 71% and the ΔMFI came out at 76 MFI. For the same molecule, in [7], the binding result is “no binding (tested: log [M] about -6.5 (about 3e-7 M))”. Also, in assay [8], the “% remaining rh IGF1R” value was 29%; the “MFI 37°C (internalisation assay, MCF7)” value is 111 MFI; the “Δ (MFI 4°C - MFI 37°C)” value came to 275 MFI. For the same molecule, the “hIGF-1R phosphorylation in response to IGF-1 (western blot, MCF-7)” value in [9] is over 80%. Also, the “HalfLife (decay of cell-surface bound antibody on MCF-7 at 37°C)” value in assay [10] was 16.8 min (unit from p-0380; none on the sheet). Besides, the “MFI 4°C” value in [11] was 386 MFI.

B2: c208F2 (antibody, human IgG1, kappa, V domains shown)
VH: QVQLQQSGPELVKPGASVKMSCKASGYTFTSYYIYWVKQRPGQGLEWLGWIWPGDGSTKYNEKFKDKTTLTADKSSNTAYMFLSSLTSEDSAVYFCASPMITPNYAMDYWGQGASVTVSS
VL: DIQMTQTTSSLSASLGDRVTISCRASQDISKYLNWYQQQPDGTIKLLIYYTSRLHSGVPSRFSGRGSGTDYSLTISNVEQEDIATYFCQQGSTLPYTFGGGTKLEIKR
notes: group G2; also called chimeric 208F2
Take B2: the EC50 in assay [12] came out at 0.532 nM; in assay [15] it was 0.67 nM; in [16] it was 0.657 nM; in assay [17] it was 0.32 nM. Further, the Kd in assay [13] is 0.22 nM; in assay [14], 0.17 nM. The Bmax in assay [15] is 981 MFI; in [17], 2010 MFI. Besides, the “% internalisation” value in assay [6] was found to be 67%. In addition, the ΔMFI in assay [6] turned out to be 52 MFI; in [18], 288 MFI. Besides, the “hIGF-1R phosphorylation, % of that induced by IGF-1 (MCF-7, Ab 10 µg/ml)” value in [9] was under 20%. The “% Internalization (MCF-7, 10 µg/ml, 4 h)” value in assay [18] is 83%. Besides, the figures for the binding result in assay [19] and in [20] were “binds” and “no binding”, respectively.
